Each block holds one binder with its values, some of them ahead of it.
Columns and labels:
Neurexin2α = Neurexin2α (UniProt E9Q7X7); test: SPR
[1] = molecular target: Recombinant human His-tagged IgSF21 protein (R&D Systems #10330-S2) (human, UniProt Q96ID5 25-444); test: SPR

Neurexin2α, sequence (E9Q7X7 29-1634): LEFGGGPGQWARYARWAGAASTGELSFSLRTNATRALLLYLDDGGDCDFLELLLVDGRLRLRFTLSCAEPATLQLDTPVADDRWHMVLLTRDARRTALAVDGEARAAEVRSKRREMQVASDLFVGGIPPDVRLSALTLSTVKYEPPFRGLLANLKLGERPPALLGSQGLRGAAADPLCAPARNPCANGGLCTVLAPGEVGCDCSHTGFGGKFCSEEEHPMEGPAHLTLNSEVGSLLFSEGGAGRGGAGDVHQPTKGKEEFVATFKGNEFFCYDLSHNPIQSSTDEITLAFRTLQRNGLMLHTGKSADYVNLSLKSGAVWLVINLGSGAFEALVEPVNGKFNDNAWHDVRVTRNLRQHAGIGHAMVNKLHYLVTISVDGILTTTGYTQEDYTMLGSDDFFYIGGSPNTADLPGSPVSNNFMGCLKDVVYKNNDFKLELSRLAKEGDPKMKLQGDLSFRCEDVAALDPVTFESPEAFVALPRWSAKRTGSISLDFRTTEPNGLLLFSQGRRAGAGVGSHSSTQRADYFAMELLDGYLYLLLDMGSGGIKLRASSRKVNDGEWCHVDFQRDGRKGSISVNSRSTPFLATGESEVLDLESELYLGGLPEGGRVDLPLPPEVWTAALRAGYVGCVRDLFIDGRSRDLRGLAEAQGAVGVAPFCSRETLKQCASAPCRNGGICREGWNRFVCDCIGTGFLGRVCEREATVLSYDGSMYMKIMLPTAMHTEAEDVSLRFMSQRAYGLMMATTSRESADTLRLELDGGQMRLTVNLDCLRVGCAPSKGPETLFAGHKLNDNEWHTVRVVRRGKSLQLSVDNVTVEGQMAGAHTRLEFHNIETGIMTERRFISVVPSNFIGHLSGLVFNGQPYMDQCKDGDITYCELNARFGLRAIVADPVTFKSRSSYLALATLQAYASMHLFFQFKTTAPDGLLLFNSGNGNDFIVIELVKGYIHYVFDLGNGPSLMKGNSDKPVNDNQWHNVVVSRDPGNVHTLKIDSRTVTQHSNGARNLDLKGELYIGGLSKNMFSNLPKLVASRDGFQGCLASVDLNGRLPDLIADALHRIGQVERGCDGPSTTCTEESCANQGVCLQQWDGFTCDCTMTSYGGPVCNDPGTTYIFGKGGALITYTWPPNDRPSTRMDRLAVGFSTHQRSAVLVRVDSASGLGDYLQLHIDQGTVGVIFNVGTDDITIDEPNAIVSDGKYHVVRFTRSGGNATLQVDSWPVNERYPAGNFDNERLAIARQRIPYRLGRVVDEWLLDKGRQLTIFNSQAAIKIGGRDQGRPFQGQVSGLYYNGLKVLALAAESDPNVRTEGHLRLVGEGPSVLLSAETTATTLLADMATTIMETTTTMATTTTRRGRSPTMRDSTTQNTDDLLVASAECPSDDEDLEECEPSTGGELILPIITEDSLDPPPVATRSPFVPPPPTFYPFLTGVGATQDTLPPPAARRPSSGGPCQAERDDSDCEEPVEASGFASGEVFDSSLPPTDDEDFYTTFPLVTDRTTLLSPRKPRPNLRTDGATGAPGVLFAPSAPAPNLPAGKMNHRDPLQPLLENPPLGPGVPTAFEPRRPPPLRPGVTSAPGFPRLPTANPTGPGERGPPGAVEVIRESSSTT

Kd (Neurexin2α): 5.67 nM
B1: IgSF21 (protein)
chain: YLTVNIEPLPPVVAGDAVTLKCNFKTDGRMREIVWYRVTDGGTIKQKIFTFDAMFSTNYSHMENYRKREDLVYQSTVRLPEVRISDNGPYECHVGIYDRATREKVVLASGNIFLNVMAPPTSIEVVAADSPAPFSRYQAQNFTLVCIVSGGKPAPMVYFKRDGEPIDAVPLTELPAASSGPVQDSRPFRSLLHRDVDDTKMQKSLSLLDTEYRAGRPYTERPARSLTQDPSLFVQPTTENIPETVVSREFPRWVHSAEPVYFLRHSRTPGSDGTVEVRALLTWTLNPQIDNEALFSCEVKHPALSMPMQAEVTLVAPKGPKIMMTPSRARVGDTVRILVHGFQNEVFPEPMFTWTRVGSRLLDGSAEFDGKELVLERVPAELNGSMYRCTAQNPLGSTDTHTRLIVFENPNIPRGTEDSRGSASGPAGVRLTLVLALTVILELT

koff [1]: 0.00101 s⁻¹
B2: Recombinant human Fc-tagged NRXN2α (human Nrxn2α-Fc, R&D Systems #6636-NX) (Fc fusion)
chain: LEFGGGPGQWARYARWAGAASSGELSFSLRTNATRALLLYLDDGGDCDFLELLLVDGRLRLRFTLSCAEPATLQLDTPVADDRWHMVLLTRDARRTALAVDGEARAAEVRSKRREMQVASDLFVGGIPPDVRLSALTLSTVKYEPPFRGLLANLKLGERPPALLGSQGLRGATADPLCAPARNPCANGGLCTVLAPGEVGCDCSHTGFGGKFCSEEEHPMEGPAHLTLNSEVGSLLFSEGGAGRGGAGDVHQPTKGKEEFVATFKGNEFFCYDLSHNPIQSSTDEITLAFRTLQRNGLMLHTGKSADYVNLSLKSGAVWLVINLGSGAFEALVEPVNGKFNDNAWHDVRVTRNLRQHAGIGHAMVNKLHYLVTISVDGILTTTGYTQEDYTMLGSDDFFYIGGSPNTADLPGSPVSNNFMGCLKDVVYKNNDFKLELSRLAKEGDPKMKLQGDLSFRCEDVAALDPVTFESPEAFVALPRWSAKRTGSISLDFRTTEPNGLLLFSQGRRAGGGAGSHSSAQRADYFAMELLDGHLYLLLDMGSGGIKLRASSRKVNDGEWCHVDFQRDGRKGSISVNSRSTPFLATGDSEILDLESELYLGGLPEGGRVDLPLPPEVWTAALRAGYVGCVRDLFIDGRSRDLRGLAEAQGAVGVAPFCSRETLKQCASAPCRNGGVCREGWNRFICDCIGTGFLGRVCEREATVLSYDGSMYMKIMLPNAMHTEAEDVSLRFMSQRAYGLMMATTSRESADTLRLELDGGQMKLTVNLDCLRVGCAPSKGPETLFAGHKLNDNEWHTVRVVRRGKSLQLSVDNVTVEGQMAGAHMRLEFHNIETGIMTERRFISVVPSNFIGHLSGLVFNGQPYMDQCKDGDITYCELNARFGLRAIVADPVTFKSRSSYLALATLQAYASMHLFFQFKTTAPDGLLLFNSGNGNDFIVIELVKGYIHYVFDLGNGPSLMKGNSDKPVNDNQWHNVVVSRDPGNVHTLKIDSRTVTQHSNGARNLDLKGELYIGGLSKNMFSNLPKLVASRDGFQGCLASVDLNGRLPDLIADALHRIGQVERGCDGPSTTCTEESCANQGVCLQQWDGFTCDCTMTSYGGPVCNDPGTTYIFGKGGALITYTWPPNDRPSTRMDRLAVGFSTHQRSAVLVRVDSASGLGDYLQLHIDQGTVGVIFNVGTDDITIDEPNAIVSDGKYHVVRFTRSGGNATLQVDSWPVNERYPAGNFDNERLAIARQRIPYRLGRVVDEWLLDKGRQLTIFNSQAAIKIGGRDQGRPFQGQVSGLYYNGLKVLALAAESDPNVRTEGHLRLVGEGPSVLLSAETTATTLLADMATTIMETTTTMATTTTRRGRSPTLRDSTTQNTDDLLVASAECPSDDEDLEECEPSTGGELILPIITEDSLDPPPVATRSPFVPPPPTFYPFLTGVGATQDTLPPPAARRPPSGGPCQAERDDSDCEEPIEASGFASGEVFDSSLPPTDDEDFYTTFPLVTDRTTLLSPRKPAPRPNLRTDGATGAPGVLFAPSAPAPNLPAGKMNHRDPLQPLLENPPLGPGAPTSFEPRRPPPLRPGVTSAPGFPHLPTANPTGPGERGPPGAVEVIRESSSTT

Source: article PMC10989685 (2024)
